{
  "source": "paper PMC2610422",
  "biological_target": "transmembrane glycoprotein gp41 of HIV-1 strain BaL, in the native spike on virions (HIV-1 strain BaL)",
  "experiment": "cryo-EM structure",
  "data": [
    {"substance": "transmembrane glycoprotein gp41 of HIV-1 strain BaL, in the native spike on virions (natural protein)", "values": [
      {"measurement": "stoichiometry N", "value": 3}
    ]}
  ]
}
